Data taken from doi:10.1101/2024.03.25.586599 (bioRxiv, 2024).
Numbering of substitutions follows the chain as printed. In names and notes the source's numbering stands. Each block holds one binder with its values, some of them ahead of it. Ends that are not written are not given here. * marks the point of attachment. Biotin = O=C1N[C@H]2[C@H](CS[C@H]2CCCCC(=O)*)N1

Columns and labels:
Test in all cases: SPR
[1] = target: T1, N-terminally biotinylated synthetic FLAG peptide, 4-residue variant (DYKD) (synthetic construct)
T1 chain: Biotin-DYKD

[2] = target: T2, N-terminally biotinylated synthetic FLAG peptide, truncated, Asp5Glu (DYKDED) (synthetic construct, point mutant)
T2 chain: Biotin-DYKDED

[3] = target: T3, N-terminally biotinylated synthetic FLAG peptide, six-residue truncated version (DYKDDD) (synthetic construct)
T3 chain: Biotin-DYKDDD

[4] = target: T4, N-terminally biotinylated synthetic FLAG peptide, 5-residue variant (DYKDD) (synthetic construct)
T4 chain: Biotin-DYKDD

[5] = target: T5, N-terminally biotinylated synthetic FLAG peptide, Asp5Glu (DYKDEDDK) (synthetic construct, point mutant, not fully specified (N-terminus))
T5 chain: DYKDEDDK

[6] = target: T6, N-terminally biotinylated synthetic FLAG peptide, wildtype (DYKDDDDK) (synthetic construct, not fully specified (N-terminus))
T6 chain: DYKDDDDK

[7] = target: T1, N-terminally biotinylated synthetic …
[8] = target: T7, N-terminally biotinylated synthetic FLAG peptide truncated by one C-terminal residue (DYKDDDD) (synthetic construct)
T7 chain: Biotin-DYKDDDD

[9] = target: T2, N-terminally biotinylated synthetic …
[10] = target: T3, N-terminally biotinylated synthetic …
[11] = target: T4, N-terminally biotinylated synthetic …
[12] = target: T5, N-terminally biotinylated synthetic …
[13] = target: T6, N-terminally biotinylated synthetic …
[14] = target: T7, N-terminally biotinylated synthetic …

KD, first site (two-site binding model) [1]: 52.9 ± 22.1 nM
KD, first site (two-site binding model) [2]: 10.2 ± 0.48 nM
KD, first site (two-site binding model) [3]: 9.72 ± 2.6 nM
KD, first site (two-site binding model) [4]: 154 ± 100 nM
KD, first site (two-site binding model) [5]: 2.23 ± 0.25 nM
KD, first site (two-site binding model) [6]: 2.95 ± 0.31 nM
B1: anti-FLAG M2 IgG (wildtype, recombinant) (antibody, V domains shown)
VH: QVQLQQSAAELARPGASVKMSCKASGYSFTTYTIHWVKQRPGQGLEWIGYINPSSGYAAYNQNFKDETTLTADPSSSTAYMELNSLTSEDSAVYYCAREKFYGYDYWGQGATLTVSS
VL: DVLMTQIPLSLPVSLGDQASISCRSSQSIVHRNGNTYLEWYLLKPGQSPKLLIYKVSNRFSGVPDRFSGSGSGTDFTLKISRVEAEDLGVYYCFQGSHVPYTFGGGTKLEIR

fold drop in affinity against the wildtype Fab [7]: ~20 fold
fold drop in affinity against the wildtype Fab [8]: ~20 fold
fold drop in affinity against the wildtype Fab [9]: ~20 fold
fold drop in affinity against the wildtype Fab [10]: ~20 fold
fold drop in affinity against the wildtype Fab [11]: ~20 fold
fold drop in affinity against the wildtype Fab [12]: ~20 fold
fold drop in affinity against the wildtype Fab [13]: ~20 fold
B2: anti-FLAG M2 Fab, heavy chain K100R (Fab, V domains shown)
VH: B1 VH with K100R
VL: B1 VL

Kd [12]: 1780 ± 130 nM
Kd [13]: 1910 ± 240 nM
B3: anti-FLAG M2 Fab (wildtype, recombinant) (Fab, V domains shown)
VH: B1 VH
VL: B1 VL

fold drop in affinity against the wildtype IgG [1]: ~20 fold
fold drop in affinity against the wildtype IgG [14]: ~20 fold
fold drop in affinity against the wildtype IgG [2]: ~20 fold
fold drop in affinity against the wildtype IgG [3]: ~20 fold
fold drop in affinity against the wildtype IgG [4]: ~20 fold
fold drop in affinity against the wildtype IgG [5]: ~20 fold
fold drop in affinity against the wildtype IgG [6]: ~20 fold
B4: anti-FLAG M2 IgG, heavy chain K100R (antibody, V domains shown)
VH: B1 VH with K100R
VL: B1 VL
